B1: 1YN3_A: minimal PG9 epitope-scaffold, SEQ ID NO: 28, native scaffold PDB 1YN3 (protein)
chain: GSHVSFNITTDVKDRKQKVNATFYKNQNISYKDLEGKVKSVLESNRGITDVDLRLSKQAKYTVNFKNGTKKVIDLKSGIYTANLINSSDIKSININID
modifications: Human immunodeficiency virus
B2: 1x3e_C: minimal PG9 epitope-scaffold, SEQ ID NO: 68 in Table 2 (SEQ ID NO: 67 in b296), native scaffold PDB 1X3E (protein)
chain: GDTTITVVGNLTADPELRFTPSGAAVANFTVASTGSALFLRCNIWREAAENVAESLTRGSRVIVTGRLCVKHASFNITTDVKDRKQKVNATFYCVEVDEIGPSLR
modifications: Human immunodeficiency virus
B3: 1x3e_a: minimal PG9 epitope-scaffold, SEQ ID NO: 66, native scaffold PDB 1X3E (protein)
chain: GDTTITVVGNLTADPELRFTPSGAAVANFTVASTGSALFLRCNIWREAAENVAESLTRGSRVIVTGRLKVKHCSFNITTDVKDRKQKVNATFYEVEVDEIGPSLR
modifications: Human immunodeficiency virus
B4: 1vh8_c: minimal PG9 epitope-scaffold, SEQ ID NO: 65, native scaffold PDB 1VH8 (protein)
chain: SLIRIGHGFDVHAFGKHASFNITTDVKDRKQKVNATFGFIAHSDGDVALHALTDAILGAAALGDIGKLFPKNADSRGLLREAFRQVQEKGYKIGNVDITIIAQAPKMRPHIDAMRAKIAEDLQCDIEQVNVKATTTEKLGFTGRQEGIACEAVALLIRQ
modifications: Human immunodeficiency virus
B5: 1vh8_a: minimal PG9 epitope-scaffold, SEQ ID NO: 63, native scaffold PDB 1VH8 (protein)
chain: SLIRIGHGFDVHAFVKHCSFNITTDVKDRKQKVNATFYFIAHSDGDVALHALTDAILGAAALGDIGKLFPKNADSRGLLREAFRQVQEKGYKIGNVDITIIAQAPKMRPHIDAMRAKIAEDLQCDIEQVNVKATTTEKLGFTGRQEGIACEAVALLIRQ
modifications: Human immunodeficiency virus
B6: 1vh8 b: minimal PG9 epitope-scaffold, SEQ ID NO: 64, native scaffold PDB 1VH8 (protein)
chain: SLIRIGHGFDVHAFVKHASFNITTDVKDRKQKVNATFYFIAHSDGDVALHALTDAILGAAALGDIGKLFPKNADSRGLLREAFRQVQEKGYKIGNVDITIIAQAPKMRPHIDAMRAKIAEDLQCDIEQVNVKATTTEKLGFTGRQEGIACEAVALLIRQ
modifications: Human immunodeficiency virus
B7: 1t0a_a: minimal PG9 epitope-scaffold, SEQ ID NO: 77, native scaffold PDB 1T0A (protein)
chain: KIRIGHGFDVHKFGKHASFNITTDVKDRKQKVNATFGLVAHSDGDVVLHAISDAILGAMALGDIGKHFPDTDAAYKGADSRVLLRHCYALAKAKGFELGNLDVTIIAQAPKMAPHIEDMRQVLAADLNADVADINVKATTTEKLGFTGRKEGIAVEAVVLLSRQG
modifications: Human immunodeficiency virus
B8: 2zjr_a: minimal PG9 epitope-scaffold, SEQ ID NO: 17, native scaffold PDB 2ZJR (protein)
chain: SHYDILQAPVISEKAYSAMERGVYSFWVSPGATKTEIKDAIQQAFGVRVIGISVKHCSFNITTDVKDRKQKVNATFAIVRLAEGQSIEALAGQ
modifications: Human immunodeficiency virus
B9: 2zjr_b: minimal PG9 epitope-scaffold, SEQ ID NO: 18, native scaffold PDB 2ZJR (protein)
chain: SHYDILQAPVISEKAYSAMERGVYSFWVSPGATKTEIKDAIQQAFGVRVIGISTKHASFNITTDVKDRKQKVNATFAIVRLAEGQSIEALAGQ
modifications: Human immunodeficiency virus
B10: 3pyr_a: minimal PG9 epitope-scaffold, SEQ ID NO: 76, native scaffold PDB 3PYR (protein)
chain: MKTAYDVILAPVLSEKAYAGFAEGKYTFWVHPKATKTEIKNAVETAFKVKVVKVNTKHASFNITTDVKDRKQKVNATFAIVQVAPGQKIEALEGLIG
modifications: Human immunodeficiency virus
B11: 2f7s_B: minimal PG9 epitope-scaffold, SEQ ID NO: 52, native scaffold PDB 2F7S (protein)
chain: DYDYLIKLLALGDSGVGKTTFLYRYTDNKFNPKFITTVGIDVKHASFNITTDVKDRKQKVNATFYDTAGQERFRSLTTAFFRDAMGFLLMFDLTSQQSFLNVRNWMSQLQANAYCENPDIVLIGNKADLPDQREVNERQARELADKYGIPYFETSAATGQNVEKAVETLLDLIMKRMEQCVE
modifications: Human immunodeficiency virus
B12: 2f7s_C: minimal PG9 epitope-scaffold, SEQ ID NO: 53, native scaffold PDB 2F7S (protein)
chain: DYDYLIKLLALGDSGVGKTTFLYRYTDNKFNPKFITTVGICVKHASFNITTDVKDRKQKVNATFYCTAGQERFRSLTTAFFRDAMGFLLMFDLTSQQSFLNVRNWMSQLQANAYCENPDIVLIGNKADLPDQREVNERQARELADKYGIPYFETSAATGQNVEKAVETLLDLIMKRMEQCVE
modifications: Human immunodeficiency virus
B13: 2vxs_a: minimal PG9 epitope-scaffold, SEQ ID NO: 37, native scaffold PDB 2VXS (protein)
chain: TNPKRSSDYYNRSTSPWNLHRNEDPERYPSVIWEAKCRHLGCINADGNVDYHMNSISQNITTDVKDRKQKVNATCTCVTPIVH
modifications: Human immunodeficiency virus
B14: PG9e-ferritin (ZM109): ferritin particle displaying the minimal PG9 epitope (gp120 154-177) of HIV-1 strain ZM109 (protein)
chain: MLSKDIIKLLNEQVNKEMQSSNLYMSMSSWCYTHSLDGAGLFLFDHAAEEYEHAKKLIIFLNENNVPVQLTSISAPEHKFEGLTQIFQKAYEHEQHISESINNIVDHAIGVKHSSFNITTDVKDRKQKVNATFYGKDHATFNFLQWYVAEQHEEEVLFKDILDKIELIGNENHGLYLADQYVKGIAKSRKS
B15: 2ZJR: 2ZJR epitope-scaffold of FIG. 58; legend leaves open whether 2ZJR_A or 2ZJR_B (protein)
chain: SHYDILQAPVISEKAYSAMERGVYSFWVSPGATKTEIKDAIQQAFGVRVIGISVKHCSFNITTDVKDRKQKVNATFAIVRLAEGQSIEALAGQ
B16: PG9e-encapsulin (ZM109): encapsulin particle displaying the minimal PG9 epitope (gp120 154-177) of HIV-1 strain ZM109 (protein)
chain: MEFLKRSFAPLTEKQWQEIDNRAREIFKTQLYGRKFVDVEGPYGWEYAAHPLGEVEVVKHSSFNITTDVKDRKQKVNATFGLRKSLPLIELRATFTLDLWELDNLERGKPNVDLSSLEETVRKVAEFEDEVIFRGCEKSGVKGLLSFEERKIECGSTPKDLLEAIVRALSIFSKDGIEGPYTLVINTDRWINFLKEEAGHYPLEKRVEECLRGGKIITTPRIEDALVVSERGGDFKLILGQDLSIGYEDREKDAVRLFITETFTFQVVNPEALILLK

The molecules below were run on monoclonal antibody PG9 (assay: ELISA of minimal epitope scaffolds with PG9). Settings: GnTI- cell expression.
Type: binding, human
Protocol: (§1) The supernatants of all wells expressing minimal epitope scaffolds were tested for binding to PG9, CH01, CH03, PGT145 and PGT142 antibodies through ELISA assays in which the supernatant was diluted 5-fold in PBS and incubated on nickel coated plates. […] Some, such as 2ZJR_A, were run over a protein A column coated in PG9 which was subsequently cleaved from the column resulting in an eluted complex consisting of the scaffolds and the PG9 Fab.
In the case of B1, the “binding to monoclonal antibody PG9” value is reported as “bind”.
For B2, the “binding to monoclonal antibody PG9” value was “bind”.
For B3, the “binding to monoclonal antibody PG9” value was “bind”.
For B4, the “binding to monoclonal antibody PG9” value was “bind”.
With B5 the “binding to monoclonal antibody PG9” value was “bind”.
B6 was tested, and the “binding to monoclonal antibody PG9” value was “bind”.
In the case of B7, the “binding to monoclonal antibody PG9” value is reported as “bind”.
With B8 the “binding to monoclonal antibody PG9” value was “bind”.
In the case of B9, the “binding to monoclonal antibody PG9” value is reported as “bind”.
B10 was tested, and the “binding to monoclonal antibody PG9” value was “bind”.
With B11 the “binding to monoclonal antibody PG9” value was “bind”.
With B12 the “binding to monoclonal antibody PG9” value was “bind”.
B13 was tested, and the “binding to monoclonal antibody PG9” value was “bind”.

The molecules below were run on PG16 (assay: Immunoprecipitation of protein nanoparticles with PG16). Settings: Protein A agarose, SDS-PAGE, Coomassie stain.
Type: binding, human
Protocol: (§2) The minimal PG9 epitope (residues 154-177) or variations thereof, were inserted or fused to ferritin, encapsulin or SOR genes using the schemes shown in FIG. 59. The expression plasmids were transfected into HEK293 cells grown in the presence of swainsonine, or transfected into HEK293 GnTI^−/− cells. Particles were purified from the media using lectin affinity chromatography (snow drop lectin from Galanthus nivalis) followed by size-exclusion chromatography. Binding experiments were performed by incubating purified particles or particle-containing expression supernatant with the listed antibodies (PG9, PG16, VRC01) and Protein A agarose resin. After this incubation, the resin was pelleted and washed several times, and then incubated with SDS-containing buffer at 100 C. The solubilized and denatured proteins were separated by SDS-PAGE and visualized with Coomassie stain.
For B14, the “immunoprecipitation by PG16” value was “interacts”.

These molecules were tested on PG9 Fab (assay: Gel filtration of epitope scaffold complex with PG9 Fab). Settings: not given.
Type: binding, human
Protocol: as §1
For B8, the “complex with PG9 Fab through gel filtration” value was “intact complex”.
B15 was tested, and the “complex with PG9 Fab through gel filtration” value was “forms a stable complex”.

These molecules were tested on PG9 (assay: Immunoprecipitation of protein nanoparticles with PG9). Settings: Protein A agarose, SDS-PAGE, Coomassie stain.
Type: binding, human
Protocol: as §2
B14 was tested, and the “immunoprecipitation by PG9” value was “immunoprecipitate”.
With B16 the “immunoprecipitation by PG9” value was “immunoprecipitate”.

From patent US20140348865A1, “[…] ON AN HIV-1 V1V2 SITE-OF-VULNERABILITY” (The United States of America, as represented by the …, priority 2011, published 2014)
